Laboratory results reported in article doi:10.1101/723213 (bioRxiv, 2019).
Substitutions are numbered along the chain they refer to. In names and notes the source's numbering stands.

B1: His-CAL1_(1-160) F43R (domain or fragment)
chain: MANAVVDEETLEAMVYERSKAWSSKMADFASLEDGMEIDVAERDNLFHGEDEDPDLDDVAKEAVEDNVPDEAKLEMGHINATSVTELTLILCANEDNEAKAEIEEILNQTVPVVEEHKRKWREAGLDRILDTFDEKQIEHHVGRWMRRHNSVYLEASPPK
B2: CAL1_(F43R)-V5 (natural protein, Drosophila melanogaster, UniProt Q9VEN2 1-979, looked up)
chain: MANAVVDEETLEAMVYERSKAWSSKMADFASLEDGMEIDVAERDNLFHGEDEDPDLDDVAKEAVEDNVPDEAKLEMGHINATSVTELTLILCANEDNEAKAEIEEILNQTVPVVEEHKRKWREAGLDRILDTFDEKQIEHHVGRWMRRHNSVYLEASPPKYLPPHHNSISDESDESMHSIDTARYIQQSRRRNAHMTNKNMTTIKMYRKHSHKRDELRAKYAYGDEQEHRHHMQAVLLRRRERERQLAYLASTPMQCVYSSGHHMRRKNLRKRRINSWMFDSASSSEEDTSFGGCDCHSCRRHYALSRSVYQSCPYGRGQREYHHRQMASRTMHTMRRQHTFDMEMDLRPRLPENECSCCNSDRLCSNVIHIANSSTEEWVVENRSNHLTQETQEKTRKQKHQPMDARKVSHQPVCSKGHEQKPLSSKATSVSKLVLSKEKYMQMFDSESSDEDNALAKKGLLCCSDKKKGMTFPTPNAAGKITHPTSSAKKAIRKEARPNGLAQIQEEGPTATNSPIESTYLPVAHMKSVSIDGSSGTSATFESPAKKAPKRGIRETSPLNGNELQQLISTIPIADEKASSLMEKVDNCIGRESFDDRNKDFMHMENSSTKTAVEKSTKQKRVSGKKSEIPKSIITNNEILEKNSTETLSEKQVAAKAKKQSVRKTGATGKPSTSRLKKSEKTKTTSSVTSTSKLEQVREEESDVSSEVLAKPKPQCSTTASILKQGGDGASNSEDDLQIALAMSKATYKEEQQKRKKTKREPSNKQPQSPAEKSMTVFNNQSVACNSTALANDTACYRVLPKRRGVKRAAAVSTTEEKTATNSSSSPTSSLEEMGSPTGGDPDCTVVTSTTGCEPPASERQEIPATIKITKRGILLHSPSAPEGASFTLTEQGLGKIIGERWARKYLKYHIGSRSFDSRHSVYYQPTPQLAAALSAPQDAQNIGNISGSSASDDDIFEQINRYGTVYSILENNSGDK
B3: CENP-C_(1264-1411) (tag cleaved) (domain or fragment, Drosophila melanogaster, UniProt Q9VHP9 1264-1411, looked up)
chain: GPVVFSTPLRDEQEEASTKLMQWLRGVGDAPPSASMSDENASVSSANELIFCQVDGIDYAFYNTKEKAMLGYMRFKPYQKRSMKQAKVHPLKLLVQFGEFNVETLAVGEEKEVHSVLRVGDMIEIDRGTRYSIQNAIDKVSVLMCIRS
B4: CAL1_(841-979) (untagged) (domain or fragment, Drosophila melanogaster, UniProt Q9VEN2 841-979, looked up)
chain: GGDPDCTVVTSTTGCEPPASERQEIPATIKITKRGILLHSPSAPEGASFTLTEQGLGKIIGERWARKYLKYHIGSRSFDSRHSVYYQPTPQLAAALSAPQDAQNIGNISGSSASDDDIFEQINRYGTVYSILENNSGDK
B5: CENP-A_(101-225) (domain or fragment)
chain: QQESKTRAAGPVAAQNQTRRRKAANPMSRAKRMDREIRRLQHHPGTLIPKLPFSRLVREFIVKYSDDEPLRVTEGALLAMQESCEMYLTQRLADSYMLTKHRNRVTLEVRDMALMAYICDRGRQF

How the values were obtained:
[1] = molecular target: T1, CENP-A_(101-225)–H4 heterodimer (Drosophila melanogaster, UniProt Q9V6Q2 101-225; P84040 2-103); assay: pull-down
CENP-A-GFP-LacI = molecular target: T2, CENP-A-GFP-LacI (Drosophila melanogaster, UniProt Q9V6Q2 1-225); assay: LacO/LacI tethering assay in cells
T2 sequence (looked up): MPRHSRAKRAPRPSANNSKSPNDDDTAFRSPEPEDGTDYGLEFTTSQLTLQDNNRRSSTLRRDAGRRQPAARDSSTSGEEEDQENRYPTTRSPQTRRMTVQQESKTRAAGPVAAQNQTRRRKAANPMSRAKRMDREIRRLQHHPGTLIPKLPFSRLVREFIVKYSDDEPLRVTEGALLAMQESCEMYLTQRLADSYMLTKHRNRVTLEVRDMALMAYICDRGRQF

SEC-MALS = molecular target: the molecule itself; assay: SEC-MALS
[2] = molecular target: T1, CENP-A_(101-225)–H4 heterodimer; assay: SEC-MALS
[3] = molecular target: B3; assay: AUC
His-CAL1_(1-160) = molecular target: T3, His-CAL1_(1-160) (Drosophila melanogaster, UniProt Q9VEN2 1-160); assay: crystal structure
T3 sequence (looked up): B1 chain with R43F

Histone H4 = Histone H4 (Drosophila melanogaster, UniProt P84040 2-103); assay: crystal structure

## B1
[1]
  binding result: binds

## B2
CENP-A-GFP-LacI
  fold reduction of the level co-localising with CENP-A, against CAL1 WT: 3 fold

## B3
SEC-MALS
  stoichiometry N: 2

## MANAVVDEETLEAMVYERSKAWSSKMADFASLEDGMEIDVAEFDNLFHGE (domain or fragment) [His-CAL1_(1-50)]
[2]
  stoichiometry N: 1 CAL1 per CENP-A/H4 heterodimer

## B4
[3]
  stoichiometry N: 1 CAL1 per CENP-C dimer

## B5
His-CAL1_(1-160)
  binding result: binds
Histone H4
  binding result: binds
